Changes are numbered by the printed parent chain.

In test [1] the target is SARS-COV-2 RBD extracellular domain expressed with a C-terminal mouse IgG2a (SARS-COV-2 RBD-mFc) (SARS-CoV-2). In words: SPR, captured mAb, RBD-mFc in solution, 37 C.
For test [2], the target named is SARS-CoV-2 RBD extracellular domain expressed with a C-terminal mouse IgG2a (SARS-COV-2 RBD-mFc) (SARS-CoV-2).

B1: mAb11004 (antibody, V domains shown)
VH: QVQLVESGGGVVQPGRSLRLSCVASGFTFSIYGMDWVRQAPGKGLEWVAVISYDGSNKYYADSVKGRFTISRDNSKNTLYLQMNSLRPEDTAVYYCAKDREAAADAFDIWGQGTMVTVSS
VL: DIQMTQSPSSVSASVGDRVTITCRASQGISSWLAWYQQKPGKAPKLLIYAASSLHSGVPSRFSGSGSGTDFTLTISSLQPEDFATYYCQQANSFRLTFGGGTKVEIKR
For B1, in test [1], binding was put at a Kd of 0.117 nM, the koff came to 0.000118 s⁻¹, the kon came to 1.01e+06 M⁻¹ s⁻¹ and the “t½” value was found to be 1.63 h.

B2: mAb10923 (antibody, V domains shown)
VH: QVQLVQSGAEVKKPGASVKVSCKASGYTFINYYIHWVRQAPGQGLEWMGWINPNSGGTNYAQKFQGRVTMTRDTSISTAYMELSRLRSDDTAVYYCAIITIFGVVTWFDPWGQGTLVTVSS
VL: not shown
In test [2], B2 displayed a Kd of 0.0435 nM, a koff of 2.83e-05 s⁻¹, a kon of 651000 M⁻¹ s⁻¹ and a t1/2 of 6.79 h.

B3: mAb10982 (antibody, V domains shown)
VH: EVQLVESGGGLVQPGGSLRLSCAASGLTVSSNYMSWVRQAPGKGLEWVSVIYSGGTTYYADSVKGRFTISRHNSKNTLSLQMNSLRAEDTAVYYCARGEGANYYGMDVWGQGTTVTVSS
VL: QSVLTQPPSVSGAPGQRVTISCTGSSSNIGTGYDVHWYQQLPGTAPKLLIYGNSNRPSGVPDRFSGSKSGTSASLAITGLQAEDEADYYCQSYDSSLSGYVVFGGGTKLTVLG
For the molecule B3, in test [1], the Kd was determined as 0.21 nM, the koff worked out at 0.000258 s⁻¹, the kon was found to be 1.23e+06 M⁻¹ s⁻¹ and the “t½” value was determined as 0.747 h.

B4: mAb10986 (antibody, V domains shown)
VH: EVQLVESGGGLVQPGGSLRLSCAASEFTVSSNYMSWVRQAPGKGLEWVSVIYSGGSTFYADSVKGRFTISRDNSKNTLYLQMNSLRAEDTAVYYCARALPYGDLHFDYWGQGTLVTVSS
VL: B3 VL with S54T, G99D, Y100S, V101Y, G105T, L109V
On to B4, for which, in test [1], binding was characterised by a dissociation constant (Kd) of 0.0126 nM and the “t½” value amounted to 3.32 h.

B5: mAb10985 (antibody, V domains shown)
VH: EVQLVESGGGLVQPGRSLRLSCAASGFTFDDYAMHWVRQAPGKGLEWVSGISWNRGSIGYADSVKGRFTISRDNAKNSLYLQMSSLRAEDTALYYCAKDGERWDSVVVPSARNGMDVWGQGTTVTVSS
VL: B3 VL with T31A, Y100S, V101Y, G105T, L109V
For the molecule B5, in test [1], binding was put at a Kd of 0.0401 nM and the “t½” value was found to be 0.513 h.

B6: mAb11002 (antibody, V domains shown)
VH: EVQLVESGGGLVQPGGSLRLSCAASGFTVSSNYMSWVRQAPGKGLEWVSVIYSGGSTFYADSVKGRFTISRHNSKNTLYLQMNSLRAEDTAVYYCAREGYGMDVWGQGTTVTVSS
VL: not shown
For the molecule B6, in test [1], binding was characterised by a dissociation constant (Kd) of 32.6 nM and the “t½” value was found to be 0.0117 h.

B7: mAb11006 (antibody, V domains shown)
VH: EVQLVESGGGLVQPGGSLRLSCAASGFIVSRNYMSWVRQAPGKGLEWVSVIYSGGSTFYADSVKGRFTISRHNSKNTLYLQMNSLKAEDTAVYYCARELRGYFDYWGQGTLVTVSS
VL: DIQLTQSPSFLSASVGDRVTITCWASQGISSYLAWYQQKPGKAPKLLIYAASTLQSGVPSRFSGSGSGTEFTLTISSLQPEDFATYYCQLLNSYPYTFGQGTKLEIKR
As for B7, in test [1], the Kd stood at 0.197 nM and the “t½” value was found to be 2.52 h.

B8: mAb11008 (antibody, V domains shown)
VH: EVQLVESGGGLVQPGGSLRLSCAASGFTVSSNYMTWVRQAPGKGLEWVSVIYSGGSTFYADSVKGRFTISRHNSENTLYLQMNSLRAEDTAVYYCARDLAAAGTDYWGQGALVTVSS
VL: B7 VL with E81D, L90H, P95L
As for B8, in test [1], the Kd was 0.872 nM, the koff was 0.000405 s⁻¹, the kon was 464000 M⁻¹ s⁻¹ and the “t½” value came to 0.475 h.

B9: mAb10998 (antibody, V domains shown)
VH: EVQLVESGGGLVHPGGSLRLSCAASGLTVSSNYMSWVRQAPGKGLEWVSVIYSGGSTYYADSVKGRFTISRHNSKNTLFLQMNSLRAEDTAVYYCARDRPITGTTLDVWGQGTTVTVSS
VL: DIQMTQSPSSLFASVGDRVTITCRASQSISSYLNWYQQKPGKAPKLLIYAASSLQSGVPSRFSGSGSGTDFTLTISSLQPEDFAFYYCQQTYSTPPITFGQGTRLEIKR
B9: in test [1], binding was characterised by a dissociation constant (Kd) of 22.4 nM, the koff amounted to 0.0197 s⁻¹, the kon is 879000 M⁻¹ s⁻¹ and the “t½” value turned out to be 0.01 h.

B10: mAb10932 (antibody, V domains shown)
VH: EVQLVESGGGLVQSGGSLRLSCAASGLTVSSNYMSWVRQAPGKGLEWVSVIYSGGSTFYSDSVKGRFTISRHNSKNTLYLQMNSLRAEDTAVYYCARARGDAFDIWGQGTMVTVSS
VL: not shown
In test [2], B10 gave a Kd not above 0.0413 nM, a koff not above 1e-05 s⁻¹, an on-rate constant (kon) of 242000 M⁻¹ s⁻¹ and a t1/2 not below 19.2 h.

B11: mAb10930 (antibody, V domains shown)
VH: EVQLVESGGGLVQPGRSLRLSCAASGFTFDDYAMYWVRQAPGKGLEWVSGISWNSGSIGYADSVKGRFTISRDNAKNSLYLQMNSLRAADTALYYCAKDKDWNSRGYYYYGMDVWGQGTTVTVSS
VL: not shown
In test [2], B11 had a Kd not above 0.0431 nM, a koff not above 1e-05 s⁻¹, a kon of 232000 M⁻¹ s⁻¹ and a t1/2 not below 19.2 h.

B12: mAb10921 (antibody, V domains shown)
VH: EVQLVESGGGLVQPGGSLRLSCAASGITVSSNYMSWVRQAPGKGLEWVSVIYSGGSTFYADSVKGRFTISRHNSKNTLYLQMNSLRAEDTAVYYCARERNFDAFDIWGQGTMVTVSS
VL: DIQMTQSPSSVSASVGDRVTITCRASQGISSWLAWYQQKPGKAPKLLIYAASSLQSGVPSRFSGSGSGTDFTLTISSLQPEDFATYYCQQANSFPLFTFGPGTKVDIKR
Regarding B12, in test [2], the Kd was not above 0.0375 nM, the koff was not above 1e-05 s⁻¹, the kon came to 266000 M⁻¹ s⁻¹ and the t1/2 was not below 19.2 h.

B13: mAb10936 (antibody, V domains shown)
VH: QVQLVESGGGVVQPGRSLRLSCAASGFTFRNYGMHWVRQAPGKGLEWVSVIWYDGSNRYYADSVKGRFTISRDTSKNTLYLQMNSLRAEDTAVYYCARDPPITGTTGGDAFDIWGQGTMVTVSS
VL: not shown
Take B13: in test [2], the Kd was not above 0.0153 nM, the koff was not above 1e-05 s⁻¹, the kon was 652000 M⁻¹ s⁻¹ and the t1/2 was not below 19.2 h.

B14: mAb10984 (antibody, V domains shown)
VH: EVQLVESGGGLVQPGGSLRLSCAASGLTVNRNYMSWVRQAPGKGLEWVSLIYSGGSTYYADSVKGRFTISRDNSKNTLYLQMNSLRLEDTAVYYCARGELGIPYGMDVWGQGTTVTVSS
VL: QSVLTQPPSVSAAPGQKVTISCSGSSSNIGNNYVSWYQQLPGTAPKLLIYDNNKRPSGIPDRFSGSKSGTSATLGITGLQTGDEADYYCGTWDSSLSAGVFGGGTKLTVLG
On to B14, for which, in test [1], the affinity, expressed as Kd, was 0.0404 nM and the “t½” value amounted to 2.3 h.

B15: mAb10920 (antibody, V domains shown)
VH: QVQLVESGGGVVQPGRSLRLSCAASGFTFSYYGMHWVRQAPGKGLEWVAVIWYDGSNKFYADSVKGRFTISRDNSKNTLYLQMNSLRAEDTAVYYCAAARPGYYYGMDVWGQGTTVTVSS
VL: DIQMTQSPSSLSASVGDRVTITCRASQGISNYLAWFQQKPGKAPNSLIYAASSLQRGVPSKFSGSGSGTDFTLTISSLQPEDFATYYCQQYNSYPRTFGQGTKVEIKR
In test [2], B15 displayed a Kd of 0.416 nM and a t1/2 of 0.658 h.

B16: mAb11010 (antibody, V domains shown)
VH: QVQLVESGGGVVQPGRSLRLSCAASGFTFSSYGMHWVRQAPGKGLEWVAVISYDGSYKYYADSVKGRFTISRDNSKNTLYLQMNSLRAEDTAVYYCAIDGGTVTTIFDYWGQGTLVTVSS
VL: not shown
As to B16, in test [1], binding was characterised by a dissociation constant (Kd) of 0.0505 nM and the “t½” value was 2.4 h.

B17: mAb10937 (antibody, V domains shown)
VH: QITLKESGPTLVKPTQTLTLTCTFSGFSLSTNVVGVGWIRQPPGKALEWLALIYWNDDKRYSPSLKSRLTITKDTSKNQVVLTMTNMDPVDTATYYCAHGPTGDYFDYWGQGTLVTVSS
VL: not shown
For the molecule B17, in test [2], the Kd turned out to be 0.114 nM, the koff came out at 7.28e-05 s⁻¹, the kon stood at 639000 M⁻¹ s⁻¹ and the t1/2 was determined as 2.64 h.

B18: mAb10934 (antibody, V domains shown)
VH: not shown
VL: DIQMTQSPSSLSASVGDRVTITCQASQDIWNYINWYQQKPGKAPKLLIYDASNLKTGVPSRFSGSGSGTDFTFTISSLQPEDIATYYCQQHDDLPPTFGQGTKVEIKR
For B18, in test [2], binding was put at a Kd of 0.0832 nM and the t1/2 came out at 1.64 h.

B19: mAb10935 (antibody, V domains shown)
VH: EVQLVESGGGLVQPGGSLRLSCAASGFTVSSNYMSWVRQAPGKGLEWVSLIYSGGSTYYADSVKGRFTISRHNSKNTLYLQMNSLRSEDTAVYYCARVPLGDYYYGMDVWGQGTTVTVSS
VL: B18 VL with W30N, N31K, I33L, K55E, H91S, D93N, P96L, Q100G
B19: in test [2], the Kd is not above 0.0261 nM, the koff is not above 1e-05 s⁻¹, the kon was 383000 M⁻¹ s⁻¹ and the t1/2 is not below 19.2 h.

B20: mAb10989 (antibody, V domains shown)
VH: QVQLVQSGAEVKKPGASVKVSCKASGYIFTGYYMHWVRQAPGQGLEWMGWINPNSGGANYAQKFQGRVTLTRDTSITTVYMELSRLRFDDTAVYYCARGSRYDWNQNNWFDPWGQGTLVTVSS
VL: QSALTQPASVSGSPGQSITISCTGTSSDVGTYNYVSWYQQHPGKAPKLMIFDVSNRPSGVSDRFSGSKSGNTASLTISGLQAEDEADYYCSSFTTSSTVVFGGGTKLTVLG
As to B20, in test [1], the “t½” value amounted to 0.527 h.

B21: mAb10913 (antibody, V domains shown)
VH: EVQLVESGGGLVQPGGSLRLSCAASGFTFRNYEMNWVRQAPGKGLEWVSYITSSGSTMYYADSVKGRFTISRDNAKNSLYLQMNSLRAEDTAVYYCARDGFYYYYAMDVWGQGTTVTVSS
VL: QSVLTQPPSVSAAPGQKVTISCSGSSSNIGNNYVSWYQQLPGTAPKLLIYDNNKRPSGIPDRFSGSKSGTSATLGITGLQTGDEADYYCGTWDSSLSVGRVFGTGTKVTVLG
In test [2], B21 had a Kd of 0.244 nM, a koff of 0.000152 s⁻¹, an on-rate constant (kon) of 623000 M⁻¹ s⁻¹ and a t1/2 of 1.27 h.

A word on the Kd: it is the free concentration of one partner at which half of the binding sites on the other are occupied at equilibrium, for simple one-to-one binding. High values mean weaker binding, low ones tighter binding. One may read the koff as the first-order rate constant of dissociation. A low value points to a long-lived complex. The term kon denotes the rate constant with which the complex forms. As a reminder, the t½ is the time needed for the level to fall by half in the phase considered. Low readings indicate fast loss, high ones slow loss.

Source of the values: patent US20240043504A1 (published 2024).
